Results: the supplement of paper PMC10201428
± gives the standard deviation of the averaged measurements.

B1: library; a variant is named by its letters at N, in order (parent)
chain: AATGTTGTTGATGCAACCATAAAGTGATATTTAATAATTATTTATAATCAGCAACTTAACCACAAAACAACCATATATTGATATNTCACAAAACAACCATAANTTGATATTTTTGTGAATCGAGTATTTCAGCAAAACTACTGCAGTAAGAA

Experiments:
[1] = variants of: B1; experiment: relative integration efficiency (T-LR orientation) vs wild-type transposon end (log2 (normalized fold change)); transposon end mutated: left end; higher = more efficient transposition; details: with VchCAST RNA-guided transposition machinery (E. coli BL21(DE3) host, lacZ target)
Summary of the method: (§1)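 Barcode abundances in input plasmids and in genomic integration junctions were obtained by PCR amplification and Illumina sequencing. These came from E. coli BL21(DE3) co-transformed with a T7-driven effector plasmid and a pUC57 donor carrying 1549 left-end or 1849 right-end transposon variants, then plated with 0.1 mM IPTG at 37°C for 18 h. Relative integration efficiency is the output/input fold change, normalised to reference barcodes and log-transformed.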

[2] = variants of: B1; experiment: relative integration efficiency (T-RL orientation) vs wild-type transposon end (log2 (normalized fold change)); transposon end mutated: left end; higher = more efficient transposition; details: with VchCAST RNA-guided transposition machinery (E. coli BL21(DE3) host, lacZ target)
Summary of the method: as §1

Variant	relative integration efficiency (log2) [1]	relative integration efficiency (log2) [2]
CG G115T T116G G117T A118C	-0.131 ± 0.19	-0.00966 ± 0.025
CG G24C T25A	-0.543 ± 0.54	-0.605 ± 0.37
CG G7C T8A T9A G10C	< -10	-6.612 ± 0.065
CG T12A G13A T31C T32A A77C T86G	-0.861 ± 0.36	-0.573 ± 0.15
CG G4C T5A	0.189 ± 0.31	0.0402 ± 0.15
CG G4T T5G	-0.37 ± 0.2	-0.366 ± 0.035
CG C61A	0.321 ± 0.14	0.0593 ± 0.091
CG C61G	-0.0835 ± 0.46	-0.191 ± 0.019
CG C61T	0.151 ± 0.41	-0.122 ± 0.029
CG T12G G13T	-0.641 ± 0.4	-0.29 ± 0.15
CG T12A G13A T30A T31C T32A A77C	-1.73 ± 0.73	-0.517 ± 0.24
CG T20A A21T A22T A23T	-0.732 ± 0.16	-0.758 ± 0.34
CG C89G A90T A91T A92T	-0.0713 ± 0.9	-0.00767 ± 0.14
CG G13A T30A T31C T32A A77C T86G	-0.338 ± 0.55	-0.517 ± 0.16
CG C63A A64C	0.557 ± 0.37	-0.135 ± 0.079
CG C98G A99T T100A A101T	-1.8 ± 0.21	-2 ± 0.73
CG G26C G80C G106C	-5.11 ± 2.5	-6.9 ± 1.7
CG C97G C98G	-1.23 ± 0.91	-1.07 ± 0.5
CG G51T C52A	0.348 ± 0.34	0.159 ± 0.19
CG G115T T116G G117T A118C A119C T120G C121A G122T A123C G124T T125G	0.199 ± 0.37	0.000247 ± 0.072

Variant	relative integration efficiency (log2) [1]	relative integration efficiency (log2) [2]
CG C97A C98A A99C T100G	-1.52 ± 0.82	-2.58 ± 1
CG C94G A95T	-2.11 ± 0.65	-1.23 ± 0.53
CG T12A T30A T31C T32A A77C T86G	-0.709 ± 0.52	-0.451 ± 0.25
CG C87T	-0.29 ± 0.12	-0.0232 ± 0.071
CG C87A	-0.42 ± 0.76	-0.276 ± 0.053
CG C87G	0.0991 ± 0.48	-0.138 ± 0.019
CG T5A	-0.149 ± 0.06	-0.22 ± 0.057
CG T5G	0.0272 ± 0.098	0.0254 ± 0.14
CG T5C	-0.291 ± 0.23	-0.319 ± 0.008
CG G117C A118T A119T T120A	0.101 ± 0.3	0.268 ± 0.02
CG G80C A81T	-2.2 ± 1.5	-2.1 ± 0.85
CG C72A A73C	-2.02 ± 0.55	-2.16 ± 0.91
CG C60T	0.161 ± 0.34	-0.00379 ± 0.0024
CG C60G	0.358 ± 0.26	-0.0988 ± 0.017
CG C60A	0.503 ± 0.15	0.0973 ± 0.034
CG C61G A62T C63G A64T	0.0811 ± 0.61	-0.0813 ± 0.26
CG G26C A27T T28A A29T	-1.67 ± 0.28	-1.58 ± 0.67
CG T12A G13A T30A T31C A77C T86G	-1.07 ± 0.047	-0.538 ± 0.15
CG C71G C72G	-1.67 ± 1.9	-1.32 ± 0.57
CG G106C A107T T108A A109T	-1.44 ± 0.63	-1.36 ± 0.7

Variant	relative integration efficiency (log2) [1]	relative integration efficiency (log2) [2]
CG G13T C14A	-1.46 ± 1.2	-0.416 ± 0.31
CG T5G T6G	< -10	–
CG C63G A64T	0.148 ± 0.19	0.1041 ± 0.00033
CG C55G T56A	0.0301 ± 0.44	0.0691 ± 0.024
CG G80T A81C T82G A83C	-2.93 ± 1.9	-2.64 ± 0.94
CG T25A	-0.158 ± 0.68	-0.346 ± 0.3
CG T25C	0.0625 ± 0.14	-0.137 ± 0.12
CG G124T T125G	-0.377 ± 0.42	-0.329 ± 0.048
CG G7T T8G	< -10	-7.23 ± 1.1
CG G24A T30A	0.342 ± 0.15	0.261 ± 0.027
CG T9G G10T	-0.0361 ± 0.31	0.0751 ± 0.11
CG T3G G4T	0.453 ± 0.4	0.121 ± 0.041
CG C55T	0.102 ± 0.26	-0.123 ± 0.13
CG C55G	0.245 ± 0.15	0.177 ± 0.069
CG T20A	-0.647 ± 0.083	-0.343 ± 0.17
CG T20C	-1.08 ± 0.45	-1.07 ± 0.49
CG T20G	-0.668 ± 0.64	-0.834 ± 0.6
CG T12G G13T C14A A15C	-0.59 ± 0.54	-0.224 ± 0.3
